From patent US9617572B2, “Methods of producing 7-carbon chemicals via aromatic compounds” (INVISTA North America S.á r.l., priority 2012, dated 2017)

Tests used:
Format in all cases: biochemical
[1] = ω-Transaminase activity assay, reverse direction (7-aminoheptanoate to pimelate semialdehyde); settings: cell free extract, 10 mM 7-aminoheptanoate, 10 mM pyruvate, pH 7.5, 25° C., 4 h, against empty vector control
Description: (§1) A sequence encoding an N-terminal His-tag was added to the genes from Chromobacterium violaceum, Pseudomonas syringae, Rhodobacter sphaeroides, and Vibrio Fluvialis encoding the ω-transaminases of SEQ ID NOs: 8, 10, 11 and 13, respectively (see FIGS. 7F and 7G) such that N-terminal HIS tagged ω-transaminases could be produced. Each of the resulting modified genes was cloned into a pET21a expression vector under control of the T7 promoter and each expression vector was transformed into a BL21[DE3] E. coli host. The resulting recombinant E. coli strains were cultivated at 37° C. in a 250 mL shake flask culture containing 50 mL LB media and antibiotic selection pressure, with shaking at 230 rpm. Each culture was induced overnight at 16° C. using 1 mM IPTG.
(§2) The pellet from each induced shake flask culture was harvested via centrifugation. Each pellet was resuspended and lysed via sonication. The cell debris was separated from the supernatant via centrifugation and the cell free extract was used immediately in enzyme activity assays.
Enzyme activity assays in the reverse direction (i.e., 7-aminoheptanoate to pimelate semialdehyde) were performed in a buffer composed of a final concentration of 50 mM HEPES buffer (pH =7.5), 10 mM 7-aminoheptanoate, 10 mM pyruvate and 100 μM pyridoxyl 5′ phosphate. Each enzyme activity assay reaction was initiated by adding cell free extract of the ω-transaminase gene product or the empty vector control to the assay buffer containing the 7-aminoheptanoate and incubated at 25° C. for 4 h, with shaking at 250 rpm. The formation of L-alanine from pyruvate was quantified via RP-HPLC.

[2] = ω-Transaminase activity assay, forward direction (pimelate semialdehyde to 7-aminoheptanoate); settings: for acceptance of pimelate semialdehyde as substrate (formation of pyruvate from L-alanine, RP-HPLC): cell free extract, 10 mM pimelate semialdehyde, 10 mM L-alanine, pH 7.5, 25° C., 4 h, against empty vector control; for reversibility of ω-transaminase activity: accepts pimelate semialdehyde and synthesizes 7-aminoheptanoate: conclusion from reverse and forward direction assays
Description: as §1, §2
Enzyme activity in the forward direction (i.e., pimelate semialdehyde to 7-aminoheptanoate) was confirmed for the transaminases of SEQ ID NO 10, SEQ ID NO 11 and SEQ ID NO 13. Enzyme activity assays were performed in a buffer composed of a final concentration of 50 mM HEPES buffer (pH=7.5), 10 mM pimelate semialdehyde, 10 mM L-alanine and 100 μM pyridoxyl 5′ phosphate. Each enzyme activity assay reaction was initiated by adding a cell free extract of the ω-transaminase gene product or the empty vector control to the assay buffer containing the pimelate semialdehyde and incubated at 25° C. for 4 h, with shaking at 250 rpm. The formation of pyruvate was quantified via RP-HPLC.

[3] = ω-Transaminase activity assay (7-aminoheptanol to 7-oxoheptanol); settings: for acceptance of 7-aminoheptanol as substrate (formation of L-alanine, RP-HPLC): cell free extract, 10 mM 7-aminoheptanol, 10 mM pyruvate, pH 7.5, 25° C., 4 h, against empty vector control; for acceptance of 7-oxoheptanol as substrate forming 7-aminoheptanol: concluded from reversibility of the ω-transaminase activity (Example 2)
Description: A nucleotide sequence encoding an N-terminal His-tag was added to the Chromobacterium violaceum, Pseudomonas syringae and Rhodobacter sphaeroides genes encoding the ω-transaminases of SEQ ID NOs: 8, 10 and 11, respectively (see FIGS. 7F and 7G) such that N-terminal HIS tagged ω-transaminases could be produced. The modified genes were cloned into a pET21a expression vector under the T7 promoter. Each expression vector was transformed into a BL21[DE3] E. coli host. Each resulting recombinant E. coli strain were cultivated at 37° C. in a 250 mL shake flask culture containing 50 mL LB media and antibiotic selection pressure, with shaking at 230 rpm. Each culture was induced overnight at 16° C. using 1 mM IPTG.
as §2
Enzyme activity assays in the reverse direction (i.e., 7-aminoheptanol to 7-oxoheptanol) were performed in a buffer composed of a final concentration of 50 mM HEPES buffer (pH=7.5), 10 mM 7-aminoheptanol, 10 mM pyruvate, and 100 μM pyridoxyl 5′ phosphate. Each enzyme activity assay reaction was initiated by adding cell free extract of the ω-transaminase gene product or the empty vector control to the assay buffer containing the 7-aminoheptanol and then incubated at 25° C. for 4 h, with shaking at 250 rpm. The formation of L-alanine was quantified via RP-HPLC.

| Molecule | acceptance of 7-aminoheptanoate as substrate (formation of L-alanine from pyruvate, RP-HPLC) [1] | acceptance of pimelate semialdehyde as substrate (formation of pyruvate from L-alanine, RP-HPLC) [2] | reversibility of ω-transaminase activity: accepts pimelate semialdehyde and synthesizes 7-aminoheptanoate [2] | acceptance of 7-aminoheptanol as substrate (formation of L-alanine, RP-HPLC) [3] | acceptance of 7-oxoheptanol as substrate forming 7-aminoheptanol [3] |
| --- | --- | --- | --- | --- | --- |
| SEQ ID NO 11: Rhodobacter sphaeroides ω-transaminase, Genbank Accession No. ABA81135.1 | accepted 7-aminoheptanote as substrate | accepted pimelate semialdehyde as substrate | accepted pimelate semialdehyde as substrate and synthesized 7-aminoheptanoate | accepted 7-aminoheptanol as substrate | accept 7-oxoheptanol as substrate and form 7-aminoheptanol |
| SEQ ID NO 13: Vibrio fluvialis ω-transaminase, Genbank Accession No. AEA39183.1 (protein, listed as Vibrio fluvialis) MNKPQSWEARAETYSLYGFTDMPSLHQRGTVVVTHGEGPYIVDVNGRRYLDANSGLWNMVAGFDHKGLIDAAKAQYERFPGYHAFFGRMSDQTVMLSEKLVEVSPFDSGRVFYTNSGSEANDTMVKMLWFLHAAEGKPQKRKILTRWNAYHGVTAVSASMTGKPYNSVFGLPLPGFVHLTCPHYWRYGEEGETEEQFVARLARELEETIQREGADTIAGFFAEPVMGAGGVIPPAKGYFQAILPILRKYDIPVISDEVICGFGRTGNTWGCVTYDFTPDAIISSKNLTAGFFPMGAVILGPELSKRLETAIEAIEEFPHGFTASGHPVGCAIALKAIDVVMNEGLAENVRRLAPRFEERLKHIAERPNIGEYRGIGFMWALEAVKDKASKTPFDGNLSVSERIANTCTDLGLICRPLGQSVVLCPPFILTEAQMDEMFDKLEKALDKVFAEVA | accepted 7-aminoheptanote as substrate | accepted pimelate semialdehyde as substrate | accepted pimelate semialdehyde as substrate and synthesized 7-aminoheptanoate |  |  |
| SEQ ID NO 8: Chromobacterium violaceum ω-transaminase, Genbank Accession No. AAQ59697.1 (protein, listed as Chromobacterium violaceum) MQKQRTTSQWRELDAAHHLHPFTDTASLNQAGARVMTRGEGVYLWDSEGNKIIDGMAGLWCVNVGYGRKDFAEAARRQMEELPFYNTFFKTTHPAVVELSSLLAEVTPAGFDRVFYTNSGSESVDTMIRMVRRYWDVQGKPEKKTLIGRWNGYHGSTIGGASLGGMKYMHEQGDLPIPGMAHIEQPWWYKHGKDMTPDEFGVVAARWLEEKILEIGADKVAAFVGEPIQGAGGVIVPPATYWPEIERICRKYDVLLVADEVICGFGRTGEWFGHQHFGFQPDLFTAAKGLSSGYLPIGAVFVGKRVAEGLIAGGDFNHGFTYSGHPVCAAVAHANVAALRDEGIVQRVKDDIGPYMQKRWRETFSRFEHVDDVRGVGMVQAFTLVKNKAKRELFPDFGEIGTLCRDIFFRNNLIMRACGDHIVSAPPLVMTRAEVDEMLAVAERCLEEFEQTLKARGLA | accepted 7-aminoheptanote as substrate |  | accepted pimelate semialdehyde as substrate and synthesized 7-aminoheptanoate | accepted 7-aminoheptanol as substrate | accept 7-oxoheptanol as substrate and form 7-aminoheptanol |
